What was measured:
[1] = target: human CD28 expressed with a C-terminal murine Fc tag (hCD28.mFc) (human); experiment: SPR Biacore 25 C, hCD28.mFc captured by anti-mFc, antibody injected
[2] = target: human PD-L1 expressed with a C-terminal myc-myc-hexahistidine tag (hPD-L1.mmH) (human); experiment: SPR Biacore 25 C, antibody captured by anti-hFc, hPD-L1.mmH injected
[3] = target: hPD-L1-mFc: hPD-L1 extracellular domain (amino acids F19-T239) expressed with the Fc portion of mouse IgG2a at the C-terminus (human; mouse) (UniProt Q9NZQ7); experiment: blocking ELISA, 0.7 nM hPD-L1-mFc on plate-coated hPD1-hFc
hPD-L1-mFc: hPD-L1 extracellular domain (amino acids F19-T239) expressed with the Fc portion of mouse IgG2a at the C-terminus (human; mouse), sequence (Q9NZQ7 19-239 limits assumed): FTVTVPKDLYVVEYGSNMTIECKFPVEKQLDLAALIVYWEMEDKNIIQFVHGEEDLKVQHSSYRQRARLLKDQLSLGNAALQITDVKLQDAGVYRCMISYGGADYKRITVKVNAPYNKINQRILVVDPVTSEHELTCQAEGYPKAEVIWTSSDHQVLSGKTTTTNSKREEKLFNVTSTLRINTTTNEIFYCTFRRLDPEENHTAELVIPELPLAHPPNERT

human PD-L1 expressed with a C-terminal myc-myc-hexahistidine tag (hPD-L1.mmH) (human), sequence (chain, as listed by the source limits assumed): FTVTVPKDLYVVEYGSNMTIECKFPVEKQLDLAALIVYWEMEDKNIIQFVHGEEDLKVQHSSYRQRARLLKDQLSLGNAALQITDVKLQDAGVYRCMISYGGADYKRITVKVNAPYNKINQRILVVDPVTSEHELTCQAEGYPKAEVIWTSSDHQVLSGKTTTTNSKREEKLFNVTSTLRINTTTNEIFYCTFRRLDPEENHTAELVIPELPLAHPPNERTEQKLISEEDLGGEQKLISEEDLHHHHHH

Substance | 90 nM mAb Bind (RU) [1] | 30 nM hPD-L1.mmH Bind (RU) [2] | % Blocking at 100 nM mAb [3]
Isotype Control (antibody) | -4.3 RU | 0.5 RU | 
Isotype control 1 (antibody) |  |  | 1%
Isotype control 2 (antibody) |  |  | 1%
Isotype control 3 (antibody) |  |  | 4%
